Data: patent publication US10428140B2, “Anti-EphA4 antibody” (EISAI R&D MANAGEMENT CO., LTD., priority 2015, dated 2019)

T1: human EphB3 (Homo sapiens, UniProt P54753)
T1 construct: a protein of the extracellular region of each human Eph receptor fused with the SEAP protein and the His tag; made in house; host or cells: Expi293F cells
T1 sequence (P54753 34-559 limits assumed): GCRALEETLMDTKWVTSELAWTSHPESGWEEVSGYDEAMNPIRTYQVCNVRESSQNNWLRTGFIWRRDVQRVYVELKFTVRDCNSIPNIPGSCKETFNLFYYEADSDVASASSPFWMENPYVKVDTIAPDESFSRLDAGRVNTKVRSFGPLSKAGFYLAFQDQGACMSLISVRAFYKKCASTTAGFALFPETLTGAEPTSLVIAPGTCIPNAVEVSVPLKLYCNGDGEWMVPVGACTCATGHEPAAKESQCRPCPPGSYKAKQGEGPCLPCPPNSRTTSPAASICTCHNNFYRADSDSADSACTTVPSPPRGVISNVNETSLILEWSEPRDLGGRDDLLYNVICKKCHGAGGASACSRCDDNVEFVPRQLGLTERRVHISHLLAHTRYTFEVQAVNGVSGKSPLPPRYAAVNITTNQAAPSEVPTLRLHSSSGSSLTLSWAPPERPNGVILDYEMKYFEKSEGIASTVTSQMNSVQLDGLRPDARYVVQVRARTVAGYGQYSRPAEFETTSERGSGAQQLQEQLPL

T2: human EphA3 (Homo sapiens, UniProt P29320)
T2 construct: a protein of the extracellular region of each human Eph receptor fused with the SEAP protein and the His tag; made in house; host or cells: Expi293F cells (culture supernatant)
T2 sequence (P29320 21-541 limits assumed): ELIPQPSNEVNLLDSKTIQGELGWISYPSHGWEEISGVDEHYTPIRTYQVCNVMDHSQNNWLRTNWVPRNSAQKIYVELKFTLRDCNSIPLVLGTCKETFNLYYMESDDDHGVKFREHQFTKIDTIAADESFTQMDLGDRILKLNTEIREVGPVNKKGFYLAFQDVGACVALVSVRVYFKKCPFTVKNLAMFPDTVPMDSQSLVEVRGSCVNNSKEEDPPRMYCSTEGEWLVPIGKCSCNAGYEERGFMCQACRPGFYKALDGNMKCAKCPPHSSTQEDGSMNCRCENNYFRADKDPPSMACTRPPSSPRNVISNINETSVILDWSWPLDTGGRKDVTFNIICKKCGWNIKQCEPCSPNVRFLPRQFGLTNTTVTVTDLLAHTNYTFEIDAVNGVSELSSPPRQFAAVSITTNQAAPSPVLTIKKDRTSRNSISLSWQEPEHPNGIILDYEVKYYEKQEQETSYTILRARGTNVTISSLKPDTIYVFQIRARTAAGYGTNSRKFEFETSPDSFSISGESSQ

T3: human EphA8 (Homo sapiens, UniProt P29322)
T3 construct: a protein of the extracellular region of each human Eph receptor fused with the SEAP protein and the His tag; made in house; host or cells: Expi293F cells (culture supernatant)
T3 sequence (P29322 28-542 limits assumed): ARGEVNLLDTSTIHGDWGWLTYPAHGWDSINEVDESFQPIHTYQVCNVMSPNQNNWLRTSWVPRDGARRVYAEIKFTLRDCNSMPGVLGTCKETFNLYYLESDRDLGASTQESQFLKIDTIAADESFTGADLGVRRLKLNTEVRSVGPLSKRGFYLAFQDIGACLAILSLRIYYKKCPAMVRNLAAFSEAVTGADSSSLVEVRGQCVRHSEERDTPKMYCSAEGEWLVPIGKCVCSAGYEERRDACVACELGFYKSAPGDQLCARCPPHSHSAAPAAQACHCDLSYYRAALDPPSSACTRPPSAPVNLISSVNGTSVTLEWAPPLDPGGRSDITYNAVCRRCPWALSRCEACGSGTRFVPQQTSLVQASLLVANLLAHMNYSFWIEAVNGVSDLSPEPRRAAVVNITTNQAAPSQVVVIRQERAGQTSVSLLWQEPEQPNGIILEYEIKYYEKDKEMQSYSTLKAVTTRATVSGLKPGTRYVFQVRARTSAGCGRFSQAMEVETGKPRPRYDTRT


Tests used:
Experiment in all cases: Selectivity ELISA of humanized antibodies for human Eph receptor
Format in all cases: binding
Conditions in all cases: coated protein 1 nM
SEAP-His = SEAP-His (Homo sapiens, UniProt P05187)
Chain of SEAP-His (P05187 23-511 limits assumed): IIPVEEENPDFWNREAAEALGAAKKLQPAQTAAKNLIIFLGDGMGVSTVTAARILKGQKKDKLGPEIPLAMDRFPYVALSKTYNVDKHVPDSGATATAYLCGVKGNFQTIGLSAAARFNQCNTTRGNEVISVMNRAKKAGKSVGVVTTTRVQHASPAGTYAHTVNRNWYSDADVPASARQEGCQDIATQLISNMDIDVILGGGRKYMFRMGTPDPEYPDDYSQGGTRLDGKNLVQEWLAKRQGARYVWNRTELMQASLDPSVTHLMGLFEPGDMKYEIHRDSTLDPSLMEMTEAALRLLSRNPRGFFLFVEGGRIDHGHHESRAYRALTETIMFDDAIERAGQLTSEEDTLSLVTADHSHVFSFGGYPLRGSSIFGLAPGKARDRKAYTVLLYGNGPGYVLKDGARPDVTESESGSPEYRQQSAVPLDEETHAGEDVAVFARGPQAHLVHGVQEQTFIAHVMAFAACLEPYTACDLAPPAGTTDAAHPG
Outline: (§1)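 His-tagged SEAP fusions of each human Eph receptor extracellular region, from Expi293F supernatants, were captured at 1 nM on anti-His-coated wells. Humanized antibody was bound 1 h at room temperature, then detected with HRP […] IgG. TMB development was acid-stopped and read at 450 nm.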

human EphA2 = target: T4, human EphA2 (Homo sapiens, UniProt P29317)
T4 construct: a protein of the extracellular region of each human Eph receptor fused with the SEAP protein and the His tag; made in house; host or cells: Expi293F cells (culture supernatant)
T4 sequence (P29317 24-537 limits assumed): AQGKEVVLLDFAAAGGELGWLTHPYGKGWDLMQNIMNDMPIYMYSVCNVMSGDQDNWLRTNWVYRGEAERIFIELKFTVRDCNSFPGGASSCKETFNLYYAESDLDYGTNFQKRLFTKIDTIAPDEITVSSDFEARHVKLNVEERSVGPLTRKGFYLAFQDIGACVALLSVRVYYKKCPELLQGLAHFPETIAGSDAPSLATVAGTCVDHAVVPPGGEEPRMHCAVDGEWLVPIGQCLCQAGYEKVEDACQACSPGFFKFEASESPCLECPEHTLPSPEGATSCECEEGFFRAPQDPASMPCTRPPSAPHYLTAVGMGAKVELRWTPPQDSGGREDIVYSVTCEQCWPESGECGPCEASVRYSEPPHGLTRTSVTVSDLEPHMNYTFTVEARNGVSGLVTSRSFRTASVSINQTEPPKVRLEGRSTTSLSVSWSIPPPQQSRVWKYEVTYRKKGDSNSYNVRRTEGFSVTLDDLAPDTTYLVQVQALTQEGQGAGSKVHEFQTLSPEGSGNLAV
Outline: as §1

human EphB3 = target: T1, human EphB3
Outline: as §1

human EphA3 = target: T2, human EphA3
Outline: as §1

human EphA8 = target: T3, human EphA8
Outline: as §1

Row | Molecule | SEAP-His: absorbance at 450 nm, percentage with respect to hEphA4-SEAP-His as 100% (SEAP-His) [%] | hEphA2-SEAP-: absorbance at 450 nm, percentage with respect to hEphA4-SEAP-His as 100% (human EphA2) [%] | hEphB3-SEAP-: absorbance at 450 nm, percentage with respect to hEphA4-SEAP-His as 100% (human EphB3) [%] | hEphA3-SEAP-: absorbance at 450 nm, percentage with respect to hEphA4-SEAP-His as 100% (human EphA3) [%] | hEphA8-SEAP-: absorbance at 450 nm, percentage with respect to hEphA4-SEAP-His as 100% (human EphA8) [%]
1 | 69 (antibody, V domains shown, synthetic humanized antibody heavy chain variable region sequence; synthetic humanized antibody light chain variable region sequence) VH: QIQLVQSGSELKKPGASVKVSCKASGYTFTDYSMHWVRQAPGQGLKWMGWINTETGEPTYADDFKGRFVFSLDTSVSTAYLQISSLKAEDTAVYYCARIPLYYYGSRYWYFDVWGQGTTVTVSS VL: DIQMTQSPSSLSASVGDRVTITCRASENIYRNLAWYQQKPGKAPKLLVYAATNLADGVPSRFSGSGSGTDYTLTISSLQPEDFATYYCQHFWGTPWTFGQGTKVEIK | 6.1 | 5.5 | 5.9 | 5.4 | 5.5
2 | 84 (antibody, V domains shown, constant regions without entry; synthetic humanized antibody light chain variable region sequence; synthetic humanized antibody heavy chain variable region sequence) VL: DIQMTQSPSSLSASVGDRVTITCRASENIYRNLAWYQQKPGKAPKLLLYAATNLADGVPSRFSGSGSGTDYTLTISSLQSEDFATYYCQHFWGTPWTFGQGTKVEIK VH: QVQLVQSGSELKKPGASVKVSCKASGYTFTDYSMHWVRQAPGQGLEWMGWINTETGEPTYADDFKGRFVFSLDTSVSTAYLQISSLKAEDTAVYYCARIPLYYYGSRYWYFDVWGQGTTVTVSS | 5.1 | 4.9 | 4.8 | 4.9 | 5.3
3 | 82 (antibody, V domains shown, constant regions without entry; synthetic humanized antibody light chain variable region sequence; synthetic humanized antibody heavy chain variable region sequence) VL: DIQMTQSPSSLSASVGDRVTITCRASENIYRNLAWYQQKPGKAPKLLLYAATNLADGVPSRFSGSGSGTDYTLTISSLQSEDFATYYCQHFWGTPWTFGQGTKVEIK VH: QVQLVQSGSELKKPGASVKVSCKASGYTFTDYSMHWVRQAPGQGLKWMGWINTETGEPTYAQGFTGRFVFSLDTSVSTAYLQISSLKAEDTAVYYCARIPLYYYGSRYWYFDVWGQGTTVTVSS | 5.9 | 5.4 | 5.6 | 5.4 | 5.8
4 | 83 (antibody, V domains shown, constant regions without entry; synthetic humanized antibody light chain variable region sequence; synthetic humanized antibody heavy chain variable region sequence) VL: DIQMTQSPSSLSASVGDRVTITCRASENIYRNLAWYQQKPGKAPKLLLYAATNLADGVPSRFSGSGSGTDYTLTISSLQSEDFATYYCQHFWGTPWTFGQGTKVEIK VH: QIQLVQSGSELKKPGASVKVSCKASGYTFTDYSMHWVRQAPGQGLKWMGWINTETGEPTYAQGFTGRFVFSLDTSVSTAYLQISSLKAEDTAVYYCARIPLYYYGSRYWYFDVWGQGTTVTVSS | 6.5 | 5.8 | 5.7 | 5.7 | 6.0
5 | 81 (antibody, V domains shown, constant regions without entry; synthetic humanized antibody light chain variable region sequence; synthetic humanized antibody heavy chain variable region sequence) VL: DIQMTQSPSSLSASVGDRVTITCRASENIYRNLAWYQQKPGKAPKLLLYAATNLADGVPSRFSGSGSGTDYTLTISSLQSEDFATYYCQHFWGTPWTFGQGTKVEIK VH: QVQLVQSGSELKKPGASVKVSCKASGYTFTDYSMHWVRQAPGQGLEWMGWINTETGEPTYAQGFTGRFVFSLDTSVSTAYLQISSLKAEDTAVYYCARIPLYYYGSRYWYFDVWGQGTTVTVSS | 5.0 | 4.8 | 4.9 | 5.0 | 5.2
6 | 85 (antibody, V domains shown, constant regions without entry; synthetic humanized antibody light chain variable region sequence; synthetic humanized antibody heavy chain variable region sequence) VL: DIQMTQSPSSLSASVGDRVTITCRASENIYRNLAWYQQKPGKAPKLLLYAATNLADGVPSRFSGSGSGTDYTLTISSLQSEDFATYYCQHFWGTPWTFGQGTKVEIK VH: QVQLVQSGSELKKPGASVKVSCKASGYTFTDYSMHWVRQAPGQGLKWMGWINTETGEPTYADDFKGRFVFSLDTSVSTAYLQISSLKAEDTAVYYCARIPLYYYGSRYWYFDVWGQGTTVTVSS | 5.3 | 5.1 | 5.2 | 5.1 | 5.5
